Laboratory results: article PMC4074040

Biological target: BBPLo, bilin-binding protein from Lonomia obliqua (a variant of lopap) (Lonomia obliqua)
Assay: SEC; analytical gel filtration of recombinant, refolded BBPLo on Superdex 75, calibrated with standards (myoglobin, NP2, IPP, BSA); monomers to dimer

## BBPLo, bilin-binding protein from Lonomia obliqua (a variant of lopap) (natural protein)
  stoichiometry N: 2
